From the DeepSol protein solubility set

experiment: soluble on expression in E. coli; label from the status in PepcDB or PDB records

Question: Which “soluble on expression in E. coli” value does the source give for “PGRLHNAIVRPRVLDLLQHATCYKLVLFRSPAGYGKTTMAAQWLADKPNLGWYSIDDSDNDPFRFMNYLLQAINKATHN” here?
Answer: The value was “not soluble”.

Question: With “PHFRGPVRKSTSIDTGPTESPASLKRVASPAAKPAIPGEEFIAMYTYESSEQGDLTFQQGDVIVVTKKDGDWWTGTGGDKSGVFPSNYVRLKDSEGSGTAGKTGSLGKKPEIAQVIASYAATGPEQLTLAPGQLILIRKKNPGGWWEGELQARGKKRQIGWFPANYVKLLSPGTSKITPTELPKTAVQPAVCQVIGMYDYTAQNDDELAFSKGQIINVLNKEDPDWWKGEVSGQVGLFPSNYVKLTTDMDPSQQWCSDLHLLDMLTPTERKRQGYIHELIVTEENYVNDLQLVTEIFQKPLTESELLTEKEVAMIFVNWKELIMCNIKLLKALRVRKKMSGEKMPVKMIGDILSAQLPHMQPYIRFCSCQLNGAALIQQKTDEAPDFKEFVKRLAMDPRCKGMPLSSFILKPMQRVTRYPLIIKNILENTPENHPDHSHLKHALEKAEELCSQVNEGVREKENSDRLEWIQAHVQCEGLSEQLVFNSVTNCLGPRKFLHSGKLYKAKSNKELYGFLFNDFLLLTQITKPLGSSGTDKVFSPKSNLQYKMYKTPIFLNEVLVKLPTDPSGDEPIFHISHIDRVYTLRAESINERTAWVQKIKAASELYIETEKKKREKAYLVRSQRATGIGRLMVNVVEGIELKPCRSHGKSNPYCEVTMGSQCHITKTIQDTLNPKWNSNCQFFIRDLEQEVLCITVFERDQLSADDFLGRTEIRVADIKKDQGSKGPVTKCLLLHEVPTGEIVVRLDLQLFDEP” as the sequence, how does the “soluble on expression in E. coli” value read?
Answer: Its value is “soluble”.

Question: Which “soluble on expression in E. coli” value does the source give for “PHSMEPQVTLNVTFKNEIQSFLVSDPENTTWADIEAMVKVSFDLNTIQIKYLDEENEEVSINSQGEYEEALKMAVKQGNQLQMQVHEGHHVVDEAPPPVVGAKRLAARAGKKPLAHYSSLVRVLGSDMKTPEDPAVQSFPLVPCDTDQPQDKPPDWFTSYLETFREQVVNETVEKLEQKLHEKLVLQNPSLGSCPSEVSMPTSEETLFLPENQFSWHIACNNCQRRIVGVRYQCSLCPSYNICEDCEAGPYGHDTNHVLLKLRRPVVGSSEPFCHSKYSTPRLPAALEQVRLQKQVDKNFLKAEKQRLRAEKKQRKAEVKELKKQLKLHRKIHLWNSIHGLQSPKSPLGRPESLLQSNTLMLPLQPCTSVMPMLSAAFVDENLPDGTHLQPGTKFIKHWRMKNTGNVKWSADTKLKFMWGNLTLASTEKKDVLVPCLKAGHVGVVSVEFIAPALEGTYTSHWRLSHKGQQFGPRVWCSIIVDPFPSEESPDNIEKGMISSSKTDDLTCQQEETFLLAKEERQLGEVTEQTEGTAACIPQKAKNVASERELYIPSVDLLTAQDLLSFELLDINIVQELERVPHNTPVDVTPCMSPLPHDSPLIEKPGLGQIEEENEGAGFKALPDSMVSVKRKAENIASVEEAEEDLSGTQFVCETVIRSLTLDAAPDHNPPCRQKSLQMTFALPEGPLGNEKEEIIHIAEEEAVMEEEEDEEDEEEEDELKDEVQSQSSASSEDYIIILPECFDTSRPLGDSMYSSALSQPGLERGAEGKPGVEAGQEPAEAGERLPGGENQPQEHSISDILTTSQTLETVPLIPEVVELPPSLPRSSPCVHHHGSPGVDLPVTIPEVSSVPDQIRGEPRGSSGLVNSRQKSYDHSRHHHGSSIAGGLVKGALSVAASAYKALFAGPPVTAQPIISEDQTAALMAHLFEMGFCDRQLNLRLLKKHNYNILQVVTELLQLNNNDWYSQRY” here?
Answer: The value was “soluble”.

Question: With “PKATAQMEGRLQEFLTAYAPGARLALADGVLGFIHHQIVELARDCLAKSGENLVTSRYFLEMQEKLERLLQDAHERSDSEEVSFIVQLVRKLLIIISRPAR” as the sequence, how does the “soluble on expression in E. coli” value read?
Answer: Its value is “soluble”.

Question: For “PKISQLVAPFELTQNNNDKAILLIHGLTDSPFSFHDLSQFFYQQGFTVRTLLLPGHGVAPSELLNTDYQAWQQAATFAIDQTLNDYQQVYLGGLSTGGALIFNYLMQQKQVDEKIKGLFMWSPATKAKSDLAWLAQYIDGIPFVDWIDLDADIDFAKYESFPYNAGAQVHALMNLVVGEGANASRQMHDIPLFVVASEHDQTIDTAHTLQLVQQWQLAS”, which “soluble on expression in E. coli” value is on record?
Answer: Its value is “not soluble”.

Question: Which “soluble on expression in E. coli” value does the source give for “PKKPPMNGYQKFSQELLSNGELNHLPLKERMVEIGSRWQRISQSQKEHYKKLAEEQQRQYKVHLDLWVKSLSPQDRAAYKEYISNKRK” here?
Answer: The value was “soluble”.

Question: Which “soluble on expression in E. coli” value does the source give for “PLLIGGLYPKNLEDRILIKLDQAPPYLLDGLVAVEDRDFYHHFGVSPKSIARAIWVNTSQGQMRQGGSTLTQQLVKNFYLTNERSLSRKLTEAMMAVLLEIHYSKQEILEAYLNEVFVGQDGQRAVHGFGLASQYFFSQPLSELKIHQVAMLVGLVKGPSFY” here?
Answer: The value was “not soluble”.

Question: For “PMVTAATSLRRALENPDSFIVAPGVYDGLSARVALSAGFDALYMTGAGTAASVHGQADLGICTLNDMRANAEMISNISPSTPVIADADTGYGGPIMVARTTEQYSRSGVAAFHIEDQVQTKRCGHLAGKILVDTDTYVTRIRAAVQARQRIGSDIVVIARTDSLQTHGYEESVARLRAARDAGADVGFLEGITSREMARQVIQDLAGWPLLLNMVEHGATPSISAAEAKEMGFRIIIFPFAALGPAVAAMREAMEKLKRDGIPGLDKEMTPQMLFRVCGLDESMKVDAQAGGAAFDGGVDLK”, which “soluble on expression in E. coli” value is on record?
Answer: The value was “soluble”.

Question: Which “soluble on expression in E. coli” value does the source give for “PNFSEGSSSTESTVRVKHKIEKTTQKLSETVRPRDMFIHDDGAHYKVDDNALYEEIWSDLPHWDVKGIKDISDQYDKAGFKSWFYGIGGSEAKLDLQFSDTIPIDIFQTLFKWSNQSFEYSSFDHILIPFNETKANKKIYLVSYSKQLILEVTVESANYRNIMNDLKNRQSNMPAFSLFSIGSKKEFLLPNKPLTMDKKEFVTESIKTNTFKQALFSDPSIVREDSNYNNRNVLTDGISRLDVNLSQRQVQFQQRNLVQSTSYQTGELIKKSQKYLEDTGSWTDHYQFFNINDSQQLSFYIFMDQIPVINSTAKPFGATSAITVQWANDDILSYKRPNYSLGTNPIKTSETELMGGSEVKMLLSKQTAYDTDKIDQIFLAYQLVSTSTNDDPLVELEPVWAMKVNGKIVPITKDLLRKEGANSGVE” here?
Answer: Its value is “soluble”.

Question: Which “soluble on expression in E. coli” value does the source give for “PNILRGLLLGYSEKMVELEHKVEVMQPTIDAFDRIATANGSLCLTDAAKALQMRPKDFISFLSQKQWIYKRTGSAHYVGYQDKVQAGFLEHKVTEVTRGDGSNKITEQVRVTPKGLTRLSKLLGNNHV” here?
Answer: Its value is “not soluble”.

Question: For “PRRGAVAHANSIVQQLVSEGADISHTRNMLRNAMNGDAVAFSRVEQNIFRQHFPNMPMHGISRDSELAIELRGALRRAVHQQAAS”, which “soluble on expression in E. coli” value is on record?
Answer: The value was “soluble”.

Question: For “PSHSGAAIFEKVSGIIAINEDVSPAELTWRSTDGDKVHTVVLSTIDKLQATPASSEKMMLRLIGKVDESKKRKDNEGNEVVPKPQRHMFSFNNRTVMDNIKMTLQQIISRYKDAD”, which “soluble on expression in E. coli” value is on record?
Answer: The value was “soluble”.

Question: Which “soluble on expression in E. coli” value does the source give for “PTEEWLRYVTTARAKSKVDTFLRRKRRELINRGEERVVSVIRTSESMVSAELLDRIAAYFGFLNRETFFYAVGTGTVSLPESFKKL” here?
Answer: Its value is “not soluble”.

Question: Which “soluble on expression in E. coli” value does the source give for “PVHAVGIGPGNLDFLTPRGEEAIREADVVVGFETVVEFVADRTDADLLTCGYRDELDTLDAFAERVAGGERGTAVAMGDPNHSGYQFVGKVQRAVDRPVRIVPGI” here?
Answer: The value was “not soluble”.

Question: With “PVNQVQSSVSWPQNGSLNSVSAPLMSYTPISFDAKIPVASVDKLRKDQDLILGTLPANSEDAGARGLFVRANDDGLQITSHGELVLDLSKRELAQLPADATIAISATEDETTAGIEGDDSTTETVERDVRPIIMGIYTELESNAAADLLNAGLNAHVEINSRFTSSPTLAKYAS” as the sequence, how does the “soluble on expression in E. coli” value read?
Answer: Its value is “soluble”.

Question: For “PVSAMAKKQKNDVADWLMHKQRVQYGGRVYERSGGIKPFLKSIRDGYIGYYLPDQDHGPEHSVFVDFFATRKATLPGLGKIAKLSRSKVLPLFASMNTEDGTFDIEILPAFDLDKGEEQDARTCNEAIEYFVGDKPEQYMWVLQLLHSQEDGNNYYNLFKPRYNTDWQVEK”, which “soluble on expression in E. coli” value is on record?
Answer: Its value is “not soluble”.
